Measured values from PMC5909925 (Molecular Biology of the Cell, 2018).
Residue numbers refer to the chain shown, from its start.

Columns and labels:
[1] = biological target: T1, full-length mouse His6-αE-catenin R551A (mouse, UniProt P26231 1-906, R551A); test: BLI
T1 sequence (looked up): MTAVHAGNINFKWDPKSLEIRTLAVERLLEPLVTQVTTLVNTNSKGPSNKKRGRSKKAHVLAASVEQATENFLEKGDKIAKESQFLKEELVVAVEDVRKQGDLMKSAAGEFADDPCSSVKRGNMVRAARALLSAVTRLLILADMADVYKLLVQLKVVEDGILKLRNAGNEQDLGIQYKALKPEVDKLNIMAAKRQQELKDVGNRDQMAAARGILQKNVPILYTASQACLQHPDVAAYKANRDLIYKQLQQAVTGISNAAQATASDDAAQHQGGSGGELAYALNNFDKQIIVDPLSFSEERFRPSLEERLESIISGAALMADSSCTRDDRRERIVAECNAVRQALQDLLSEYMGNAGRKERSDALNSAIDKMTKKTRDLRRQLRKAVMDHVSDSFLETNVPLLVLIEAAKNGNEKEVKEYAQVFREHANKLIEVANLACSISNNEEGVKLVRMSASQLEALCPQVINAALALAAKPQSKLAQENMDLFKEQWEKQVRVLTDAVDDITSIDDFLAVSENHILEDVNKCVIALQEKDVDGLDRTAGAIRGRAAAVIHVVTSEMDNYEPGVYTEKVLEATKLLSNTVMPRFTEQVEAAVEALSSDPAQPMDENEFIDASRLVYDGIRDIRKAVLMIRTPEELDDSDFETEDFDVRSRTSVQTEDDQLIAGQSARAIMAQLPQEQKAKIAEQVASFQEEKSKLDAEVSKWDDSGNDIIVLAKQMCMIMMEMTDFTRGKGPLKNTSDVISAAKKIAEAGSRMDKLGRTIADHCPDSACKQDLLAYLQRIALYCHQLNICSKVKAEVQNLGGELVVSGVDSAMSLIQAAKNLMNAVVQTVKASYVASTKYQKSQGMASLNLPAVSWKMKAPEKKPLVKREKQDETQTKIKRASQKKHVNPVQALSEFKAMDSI

[2] = biological target: T2, full-length mouse His6-αE-catenin (WT) (mouse, UniProt P26231 1-906); test: BLI
T2 sequence (looked up): T1 sequence (looked up) with A551R

- Kd [1]: 140 nM
- Kd [2]: 1800 nM
B1: constitutively active vinculin head domain (VHD, residues 1-252) (domain or fragment, human, UniProt P18206 1-252, looked up)
chain: MPVFHTRTIESILEPVAQQISHLVIMHEEGEVDGKAIPDLTAPVAAVQAAVSNLVRVGKETVQTTEDQILKRDMPPAFIKVENACTKLVQAAQMLQSDPYSVPARDYLIDGSRGILSGTSDLLLTFDEAEVRKIIRVCKGILEYLTVAEVVETMEDLVTYTKNLGPGMTKMAKMIDERQQELTHQEHRVMLVNSMNTVKELLPVLISAMKIFVTTKNSKNQGIEEALKNRNFTVEKMSAEINEIIRVLQLTS
